The data set deals with the molecule itself. Kind of data set: AUC.

B1: C.Esp1396I controller (C) protein (natural protein, UniProt Q8GGH0 1-79, looked up)
chain: MESFLLSKVSFVIKKIRLEKGMTQEDLAYKSNLDRTYISGIERNSRNLTIKSLELIMKGLEVSDVVFFEMLIKEILKHD
As for B1, the dissociation constant (Kd) is roughly 600 nM and the “stoichiometry N” value was determined as 2.

Source of the values: paper PMC2691842 (Nucleic Acids Research, 2009).
